The data set deals with the molecule itself. Briefly: DSG crosslinking of whole cell lysates; immunoprecipitation and immunoblot with anti-Stat6 serum. How it is done: Effect of Stat6c on endogenous Stat6 dimerization. To elucidate the molecular mechanism of Stat6c's potent transcriptional […], several possibilities were considered. Because endogenous Stat6 tyrosine phosphorylation is only partly diminished by Stat6c, inhibition of IL-4-induced endogenous Stat6 association with IL-4Rα or JAK activation appeared unlikely. […] Therefore, crosslinking studies were performed to investigate whether Stat6c might effect endogenous Stat6 dimerization. Whole cell lysates from IL-4-treated FDC-P2 cells or Stat6 and Stat6c transfectants were incubated with disuccinimidyl glutarate (DSG).

B1: endogenous murine Stat6 (other, UniProt P52633 1-837, looked up)
chain: MSLWGLISKMSPEKLQRLYVDFPQRLRHLLADWLESQPWEFLVGSDAFCYNMASALLSATVQRLQATAGEQGKGNSILPHISTLESIYQRDPLKLVATIRQILQGEKKAVIEEFRHLPGPFHRKQEELKFTTALGRLQHRVRETRLLRESLQQGAKTGQVSLQNLIDPPVNGPGPSEDLATMLQGTVGDLEATQALVLKRIQIWKRQQQLAGNGTPFEESLAGLQERCESLVEIYSQLQQEIGAASGELEPKTRASLISRLDEVLRTLVTSSFLVEKQPPQVLKTQTKFQAGVRFLLGLQFLGTSAKPPMVRADMVTEKQARELSLAQGPGTGVESTGEIMNNTVPLENSIPSNCCSALFKNLLLKKIKRCERKGTESVTEEKCAVLFSTSFTLGPNKLLIQLQALSLPLVVIVHGNQDNNAKATILWDNAFSEMDRVPFVVAERVPWEKMCETLNLKFMAEVGTSRGLLPEHFLFLAQKIFNDNSLSVEAFQHRCVSWSQFNKEILLGRGFTFWQWFDGVLDLTKRCLRSYWSDRLIIGFISKQYVTSLLLNEPDGTFLLRFSDSEIGGITIAHVIRGQDGSSQIENIQPFSAKDLSIRSLGDRIRDLAQLKNLYPKKPKDEAFRSHYKPEQMGKDGRGYVSTTIKMTVERDQPLPTPEPQMPAMVPPYDLGMAPDASMQLSSDMGYPPQSIHSFQSLEESMSVLPSFQEPHLQMPPNMSQITMPFDQPHPQGLLQCQSQEHAVSSPEPMLCSDVTMVEDSCLTQPVGGFPQGTWVSEDMYPPLMPPTEQDLTKLLLENQGEAGGSLGSQPLLQPSPYGQSGISLSHLDLRTNPSW
notes: Endogenous protein in FDC-P2 whole cell lysates; also called endogenous Stat6
Regarding B1, the binding result is recorded as “binds”.

Source of the values: patent publication US6368828 (US Dept. of Health and Human Services, dated 2002).
